Data on one molecule can be found in US20250032566A1 (YEDA RESEARCH AND DEVELOPMENT, published 2025).

Test [1] concerns the target T1, ThsA (Thoeris defense system protein) (UniProt J8G6Z1 1-476).
T1 construct: Expressed from pBAD as a ThsA-ThsB operon in E. coli MG1655; also called Thoeris (ThsA/B)
T1 sequence: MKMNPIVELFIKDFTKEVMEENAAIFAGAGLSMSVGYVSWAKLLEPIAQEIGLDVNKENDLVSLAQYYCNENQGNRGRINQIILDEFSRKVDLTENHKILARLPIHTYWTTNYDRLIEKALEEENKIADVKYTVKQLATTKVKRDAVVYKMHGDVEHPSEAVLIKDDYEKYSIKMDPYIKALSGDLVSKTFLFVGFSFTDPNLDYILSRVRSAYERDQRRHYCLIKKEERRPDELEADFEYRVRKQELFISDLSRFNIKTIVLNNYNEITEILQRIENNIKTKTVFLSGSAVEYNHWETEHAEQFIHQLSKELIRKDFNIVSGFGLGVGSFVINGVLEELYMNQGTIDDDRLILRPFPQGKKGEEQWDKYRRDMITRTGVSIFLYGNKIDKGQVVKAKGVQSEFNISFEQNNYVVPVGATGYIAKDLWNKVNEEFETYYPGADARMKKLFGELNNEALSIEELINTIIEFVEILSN
Nature of the test: His-tag pulldown on Ni-NTA magnetic beads from E. coli lysate co-expressing TAD1-His, ThsA and ThsB; SDS-PAGE.

The target of test [2] is T2, ThsB (Thoeris defense system TIR-domain protein) (UniProt J8G8J6 1-192).
T2 construct: Expressed from pBAD as a ThsA-ThsB operon in E. coli MG1655; also called Thoeris (ThsA/B)
T2 sequence: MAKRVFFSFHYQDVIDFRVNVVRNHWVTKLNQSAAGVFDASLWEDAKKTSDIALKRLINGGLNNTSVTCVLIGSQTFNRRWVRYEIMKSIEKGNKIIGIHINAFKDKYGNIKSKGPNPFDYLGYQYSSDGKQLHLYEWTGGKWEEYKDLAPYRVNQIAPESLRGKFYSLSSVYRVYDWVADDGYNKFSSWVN
Described as above.

B1: TAD1 (Thoeris Anti Defense 1) from phage SBSphiJ7 with a C-terminal His-tag (other)
chain: MRELKHELLPTRHTQVFHEDKDKMEFNAPHHFVVVPAGSPLVDQQIHYGRGGNSKKVTVKDFAGKLATVNFQLGPVTEHGANGVMNEDLIAMVITRLQYFQNSEFNCRENAMAITKLEEALMWLNKRTAEREQRGVEGTHEK
notes: Co-expressed with ThsA and ThsB in E. coli MG1655 and pulled down on Ni-NTA magnetic beads; also called TAD1-His; His-TAD1; not shown: C-terminal His-tag
In the case of B1, the binding result in test [1] and in test [2] was “no binding” throughout.
